To fix the notation:
B1: BIIB-9-440 (antibody, V domains shown)
VH: QLQLQESGPGLVKPSETLSLTCTVSGGSISSSDYYWGWIRQPPGKGLEWIGSIYYSGSTYYNPSLKSRVTISVDTSKNQFSLKLSSVTAADTAVYYCARSPRHKVRGPNWFDPWGQGTLVTVSS
VL: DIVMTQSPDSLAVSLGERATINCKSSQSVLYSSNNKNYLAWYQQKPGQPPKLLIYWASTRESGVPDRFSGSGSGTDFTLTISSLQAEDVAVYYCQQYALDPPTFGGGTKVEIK
B2: BIIB-9-461 (antibody, V domains shown)
VH: QVQLVQSGAEVKKPGASVKVSCKASGYTFTSYYMHWVRQAPGQGLEWMGIINPSGGSTSYAQKFQGRVTMTRDTSTSTVYMELSSLRSEDTAVYYCARGPTDSSGYLDMDVWGKGTTVTVSS
VL: EIVMTQSPATLSVSPGERATLSCRASQSVSSSLAWYQQKPGQAPRLLIYGASTRATGIPARFSGSGSGTEFTLTISSLQSEDFAVYYCQQHHHWPPTFGGGTKVEIK
B3: BIIB-9-611 (antibody, V domains shown)
VH: QVQLVQSGAEVKKPGASVKVSCKASGYTFTSYYMHWVRQAPGQGLEWMGIINPSGGSTSYAQKFQGRVTMTRDTSTSTVYMELSSLRSEDTAVYYCAREVISRVSYFDLWGRGTLVTVSS
VL: EIVMTQSPATLSVSPGERATLSCRASQSVSSNLAWYQQKPGQAPRLLIYGASTRATGIPARFSGSGSGTEFTLTISSLQSEDFAVYYCQQDNIHPYTFGGGTKVEIK
B4: BIIB-9-1278 (antibody, V domains shown)
VH: QVQLVQSGAEVKKPGASVKVSCKASGYTFTSYYMVWVRQAPGQGLEWMGIINPSGGSTSYAQKFQGRVTMTRDTSTSTVYMELSSLRSEDTAVYYCARGPGELGYYLAFDIWGQGTMVTVSS
VL: EIVMTQSPATLSVSPGERATLSCRASQSVSSNLAWYQQKPGQAPRLLIYGASTRATGIPARFSGSGSGTEFTLTISSLQSEDFAVYYCQQHANFPPTFGGGTKVEIK
B5: BIIB-9-439 (antibody, V domains shown)
VH: QVQLVQSGAEVKKPGASVKVSCKASGYTFTSYYMHWVRQAPGQGLEWMGIINPSGGSTTYAQKFQGRVTMTRDTSTSTVYMELSSLRSEDTAVYYCAREATESYYYMDVWGKGTTVTVSS
VL: EIVMTQSPATLSLSPGERATLSCRASQSVSSYLAWYQQKPGQAPRLLIYDSSNRATGIPARFSGSGSGTDFTLTISSLEPEDFAVYYCQQRDNWPFTFGGGTKVEIK
B6: BIIB-9-1267 (antibody, V domains shown)
VH: QVQLVQSGAEVKKPGASVKVSCKASGYTFTSYYMHWVRQAPGQGLEWMGIINPSGGSTSYAQKFQGRVTMTRDTSTSTVYMELSSLRSEDTAVYYCARDHGWAIYGMDVWGQGTTVTVSS
VL: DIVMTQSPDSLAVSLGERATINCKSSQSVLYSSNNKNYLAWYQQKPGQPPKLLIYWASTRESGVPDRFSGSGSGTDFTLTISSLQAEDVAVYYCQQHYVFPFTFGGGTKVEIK
B7: BIIB-9-445 (antibody, V domains shown)
VH: QVQLVQSGAEVKKPGASVKVSCKASGYTFTSYYIHWVRQAPGQGLEWMGIINPSGGSTSYAQKFQGRVTMTRDTSTSTVYMELSSLRSEDTAVYYCARDVGQDYWFDLWGRGTLVTVSS
VL: EIVMTQSPATLSVSPGERATLSCRASQSVSSNLAWYQQKPGQAPRLLIYSASTRATGIPARFSGSGSGTEFTLTISSLQSEDFAVYYCQQYDNFPFTFGGGTKVEIK
B8: BIIB-9-587 (antibody, V domains shown)
VH: QVQLVQSGAEVKKPGASVKVSCKASGYTFTSYYMHWVRQAPGQGLEWMGIINPSGGSTSYAQKFQGRVTMTRDTSTSTVYMELSSLRSEDTAVYYCARGPPGYEYYMDVWGKGTTVTVSS
VL: DIQMTQSPSSVSASVGDRVTITCRASQGISSWLAWYQQKPGKAPKLLIYAASSLQSGVPSRFSGSGSGTDFTLTISSLQPEDFATYYCQQADSFPFTFGGGTKVEIK
B9: BIIB-9-888 (antibody, V domains shown)
VH: QVQLVQSGAEVKKPGASVKVSCKASGYTFTSYYMHWVRQAPGQGLEWMGIINPSGGSTSYAQKFQGRVTMTRDTSTSTVYMELSSLRSEDTAVYYCARGPTDSSGYLDMDVWGKGTTVTVSS
VL: EIVMTQSPATLSVSPGERATLSCRASQSVSSNLAWYQQKPGQAPRLLIYGASTRATGIPARFSGSGSGTEFTLTISSLQPEDFAVYYCQQAFNWPPTFGGGTKVEIK
B10: BIIB-9-885 (antibody, V domains shown)
VH: QVQLVQSGAEVKKPGASVKVSCKASGYTFTSYYMHWVRQAPGQGLEWMGIINPSGGSTSYAQKFQGRVTMTRDTSTSTVYMELSSLRSEDTAVYYCAREGPMLDYPTYSNWFDPWGQGTLVTVSS
VL: EIVLTQSPATLSLSPGERATLSCRASQSVSSYLAWYQQKPGQAPRLLIYDASKRATGIPARFSGSGSGTDFTLTISSLEPEDFAVYYCQQRVIWPPTFGGGTKVEIK
B11: BIIB-9-621 (antibody, V domains shown)
VH: QLQLQESGPGLVKPSETLSLTCTVSGGSISSSSYYWGWIRQPPGKGLEWIGSIYYSGSTYYNPSLKSRVTISVDTSKNQFSLKLSSVTAADTAVYYCARDGSISGSRFDYWGQGTLVTVSS
VL: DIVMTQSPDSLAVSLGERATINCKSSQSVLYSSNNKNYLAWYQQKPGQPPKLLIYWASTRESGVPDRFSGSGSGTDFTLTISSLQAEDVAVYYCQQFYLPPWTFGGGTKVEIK
B12: BIIB-9-573 (antibody, V domains shown)
VH: QLQLQESGPGLVKPSETLSLTCTVSGGSISSSSYYWGWIRQPPGKGLEWIGSIYYSGSTYYNPSLKSRVTISVDTSKNQFSLKLSSVTAADTAVYYCARESKTKGYLDLWGRGTLVTVSS
VL: EIVLTQSPGTLSLSPGERATLSCRASQSVSSSFLAWYQQKPGQAPRLLIYGASSRATGIPDRFSGSGSGTDFTLTISRLEPEDFAVYYCQQSHSPPYTFGGGTKVEIK
B13: BIIB-9-480 (antibody, V domains shown)
VH: QVQLQESGPGLVKPSETLSLTCAVSGYSISSGYYWGWIRQPPGKGLEWIGSSYHSGSTYYNPSLKSRVTISVDTSKNQFSLKLSSVTAADTAVYYCARDQQDYGAFDIWGQGTMVTVSS
VL: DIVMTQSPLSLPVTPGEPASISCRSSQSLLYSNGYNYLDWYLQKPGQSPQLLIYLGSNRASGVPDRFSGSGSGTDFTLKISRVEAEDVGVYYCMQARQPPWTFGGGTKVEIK
B14: BIIB-9-1264 (antibody, V domains shown)
VH: QVQLVQSGAEVKKPGASVKVSCKASGYTFTSYYMHWVRQAPGQGLEWMGIINPSGGSTSYAQKFQGRVTMTRDTSTSTVYMELSSLRSEDTAVYYCARDGDSSVYAFDYWGQGTLVTVSS
VL: DIQMTQSPSSLSASVGDRVTITCQASQDITNYLNWYQQKPGKAPKLLIYDASNLETGVPSRFSGSGSGTDFTFTISSLQPEDIATYYCQQVDDYPFTFGGGTKVEIK
B15: BIIB-9-883 (antibody, V domains shown)
VH: QVQLVQSGAEVKKPGASVKVSCKASGYTFTSYYMHWVRQAPGQGLEWMGIINPSGGSTSYAQKFQGRVTMTRDTSTSTVYMELSSLRSEDTAVYYCARDGRLSYTWDRWGQGTLVTVSS
VL: DIQMTQSPSSLSASVGDRVTITCQASQDITNYLNWYQQKPGKAPKLLIYDASNLETGVPSRFSGSGSGTDFTFTISSLQPEDIATYYCQQADHFPFTFGGGTKVEIK
B16: BIIB-9-569 (antibody, V domains shown)
VH: QVQLVQSGAEVKKPGASVKVSCKASGYTFTSYYMHWVRQAPGQGLEWMGIINPSGGSTSYAQKFQGRVTMTRDTSTSTVYMELSSLRSEDTAVYYCARDGSGYSPYSFDPWGQGTLVTVSS
VL: DIQMTQSPSSLSASVGDRVTITCQASQDISNYLNWYQQKPGKAPKLLIYDASNLATGVPSRFSGSGSGTDFTFTISSLQPEDIATYYCQQADDFPFTFGGGTKVEIK
B17: BIIB-9-1281 (antibody, V domains shown)
VH: QVQLQQWGAGLLKPSETLSLTCAVYGGSFSGYYWSWIRQPPGKGLEWIGEIDHSGSTNYNPSLKSRVTISVDTSKNQFSLKLSSVTAADTAVYYCARTTRSKYYGMDVWGQGTMVTVSS
VL: DIQMTQSPSTLSASVGDRVTITCRASQSISSWLAWYQQKPGKAPKLLIYKASSLESGVPSRFSGSGSGTDFTLTISSLQPEDFATYYCQQAISLPITFGGGTKVEIK
B18: BIIB-9-605 (antibody, V domains shown)
VH: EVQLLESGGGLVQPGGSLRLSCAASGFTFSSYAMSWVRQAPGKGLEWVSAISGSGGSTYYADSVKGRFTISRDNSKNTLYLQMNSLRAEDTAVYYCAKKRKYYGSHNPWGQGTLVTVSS
VL: DIQMTQSPSSVSASVGDRVTITCRASQGISSWLAWYQQKPGKAPKLLIYAASSLQSGVPSRFSGSGSGTDFTLTISSLQPEDFATYYCQQADVFPFTFGGGTKVEIK
B19: BIIB-9-581 (antibody, V domains shown)
VH: QVQLVQSGAEVKKPGASVKVSCKASGYTFTSYYMHWVRQAPGQGLEWMGIINPSGGSTSYAQKFQGRVTMTRDTSTSTVYMELSSLRSEDTAVYYCARDPLYYREGYVFDYWGQGTLVTVSS
VL: DIQMTQSPSSLSASVGDRVTITCRASQSISSYLNWYQQKPGKAPKLLIYAASSLQSGVPSRFSGSGSGTDFTLTISSLQPEDFATYYCQQSDLFPFTFGGGTKVEIK
B20: BIIB-9-887 (antibody, V domains shown)
VH: QVQLVQSGAEVKKPGASVKVSCKASGYTFTSYYMVWVRQAPGQGLEWMGIINPSGGSTSYAQKFQGRVTMTRDTSTSTVYMELSSLRSEDTAVYYCARDAEAHWIPGMDVWGQGTTVTVSS
VL: DIQMTQSPSSVSASVGDRVTITCRASQGISSWLAWYQQKPGKAPKLLIYAASSLQSGVPSRFSGSGSGTDFTLTISSLQPEDFATYYCQQASSFPFTFGGGTKVEIK
B21: BIIB-9-479 (antibody, V domains shown)
VH: QVQLQESGPGLVKPSETLSLTCTVSGGSISSYYWSWIRQPPGKGLEWIGSIYYSGSTNYNPSLKSRVTISVDTSKNQFSLKLSSVTAADTAVYYCAREHYGDYPLFDIWGQGTMVTVSS
VL: DIQMTQSPSTLSASVGDRVTITCRASQSISSWLAWYQQKPGKAPKLLIYKASSLESGVPSRFSGSGSGTEFTLTISSLQPDDFATYYCQQYRILSPTFGGGTKVEIK
B22: BIIB-9-607 (antibody, V domains shown)
VH: QLQLQESGPGLVKPSETLSLTCTVSGGSISSSSYYWGWIRQPPGKGLEWIGSISYSGSTYYNPSLKSRVTISVDTSKNQFSLKLSSVTAADTAVYYCARDRGYSYEDFDLWGRGTLVTVS
VL: DIQMTQSPSTLSASVGDRVTITCRASQSISSWLAWYQQKPGKAPKLLIYKASSLESGVPSRFSGSGSGTEFTLTISSLQPDDFATYYCQQAGRYPLTFGGGTKVEIK
B23: BIIB-9-1279 (antibody, V domains shown)
VH: QVQLVQSGAEVKKPGASVKVSCKASGYTFTSYYMHWVRQAPGQGLEWMGIINPSGGSTSYAQKFQGRVTMTRDTSTSTVYMELSSLRSEDTAVYYCARGPTDSSGYLDMDVWGKGTTVTVSS
VL: DIQMTQSPSSVSASVGDRVTITCRASQGISSWLAWYQQKPGKAPKLLIYAASSLQSGVPSRFSGSGSGTDFTLTISSLQPEDFATYYCQQASSFPPTFGGGTKVEIK

One may read the Kd as a measure of binding affinity in units of concentration. A high value points to a looser complex.

The target of the assay is free FIXa (activated Factor IX) (UniProt P00740 47-191; P00740 227-461). The assay is described as follows: BLI. A general note: In BLI a coated tip is dipped into the sample, and binding shifts an interference pattern.
As for B1, the equilibrium dissociation constant (Kd) came to 39.9 nM.

B2 yielded a Kd of 43.1 nM.

Molecule B3 had a Kd of 18.6 nM.

For the molecule B4, the equilibrium dissociation constant (Kd) came to 66.2 nM. Compared with the last molecule, the Kd is about 3.6-fold higher.

The molecule B5 had a dissociation constant Kd of 15.6 nM.

B6 yielded a Kd of 15.6 nM. This lies in the double-digit nanomolar range.

In turn, B7 returned a Kd of 20.2 nM.

B8: the Kd amounted to 11.8 nM.

B9 showed a Kd of 65.6 nM.

B10 came in with an equilibrium dissociation constant (Kd) of 0.804 nM.

The molecule B11 gave a Kd of 16.7 nM.

Consider B12, for which the Kd turned out to be 8.58 nM.

Molecule B13 yielded a Kd of 7.51 nM.

For the molecule B14, binding was characterised by a dissociation constant (Kd) of 14.9 nM.

The molecule B15 yielded an equilibrium dissociation constant (Kd) of 17.5 nM.

In turn, B16 registered a Kd of 7.05 nM.

The molecule B17 gave an equilibrium dissociation constant (Kd) of 16.8 nM.

In turn, B18 had a Kd of 8.63 nM.

In turn, B19 showed a dissociation constant (Kd) of 12.9 nM.

In the case of B20, the equilibrium dissociation constant (Kd) was found to be 6.1 nM.

B21 had a Kd of 58.3 nM.

As for B22, the dissociation constant (Kd) stood at 6.57 nM.

As to B23, the Kd is 40.9 nM. This Kd is about 6.2-fold higher than that of the molecule before.

For the origin of these results see US20230192896A1 (published 2023).
